According to patent publication US20100172907A1 (Hoffmann-La Roche, published 2010):
Residue numbers refer to the chain shown, from its start. Groups on a side chain read outwards from the residue. No end group written: not given here. NSMP = not defined here

T1: BSA-conjugated Aβ heptapeptide FFAEDVC (C-terminal Cys coupled to NSMP-activated BSA)
T1 construct: also called Peptide 19-24
T1 peptide: FFAEDVC

T2: BSA-conjugated Aβ heptapeptide VFFAEDC (C-terminal Cys coupled to NSMP-activated BSA)
T2 construct: also called Peptide 18-23
T2 peptide: VFFAEDC

T3: BSA-conjugated Aβ heptapeptide LVFFAEC (reading uncertain; also: BSA conjugate)
T3 construct: also called Peptide 17-22
T3 peptide: LVFFAEC([NSMP-BSA])

T4: BSA-conjugated Aβ heptapeptide AEFRHDC (C-terminal Cys coupled to NSMP-activated BSA)
T4 construct: also called Peptide 2-7
T4 peptide: AEFRHDC

B1: MS-Roche #7.9.H2 Fab (Fab, V domains shown)
VH: QVQLVESGGGLVQPGGSLRLSCAASGFTFSSYAMSWVRQAPGKGLEWVSAINADGNRKYYADSVKGRFTISRDNSKNTLYLQMNSLRAEDTAVYYCARGKGNTHKPYGYVRYFDVWGQGTLVTVSS
VL: DIVLTQSPATLSLSPGERATLSCRASQSVSSSYLAWYQQKPGQAPRLLIYGASSRATGVPARFSGSGSGTDFTLTISSLEPEDFATYYCLQIYNMPITFGQGTKVEIKR
notes: assembled
B2: MS-Roche #7.9.H3 Fab (Fab, V domains shown)
VH: B1 VH with A53Y, D54Q
VL: B1 VL
notes: assembled
B3: MS-Roche #7.9.H4 Fab (Fab, V domains shown)
VH: B1 VH with D54V, N56M, R57K, Y59F
VL: B1 VL
notes: assembled
B4: MS-Roche #7.11 Fab (Fab, V domains shown)
VH: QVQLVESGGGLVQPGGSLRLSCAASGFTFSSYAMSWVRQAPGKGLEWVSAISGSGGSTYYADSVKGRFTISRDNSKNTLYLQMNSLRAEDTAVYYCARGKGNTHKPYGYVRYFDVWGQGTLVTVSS
VL: B1 VL with L90Q, I92V, N94S, M95P, I97H
B5: MS-Roche #7.11.H1 Fab (Fab, V domains shown)
VH: B1 VH with A50G, D54A, N56F, K58T
VL: B1 VL with L90Q, I92V, N94S, M95P, I97H
B6: MS-Roche #7.11.H2 Fab (Fab, V domains shown)
VH: B1 VH with D54N, N56Y, R57K
VL: B1 VL with L90Q, I92V, N94S, M95P, I97H
B7: MS-Roche #3.2.H2 Fab (Fab, V domains shown)
VH: QVQLVESGGGLVQPGGSLRLSCAASGFTFSSYAMSWVRQAPGKGLEWVSAISQRGQFTYYADSVKGRFTISRDNSKNTLYLQMNSLRAEDTAVYYCARLTHYARYYRYFDVWGQGTLVTVSS
VL: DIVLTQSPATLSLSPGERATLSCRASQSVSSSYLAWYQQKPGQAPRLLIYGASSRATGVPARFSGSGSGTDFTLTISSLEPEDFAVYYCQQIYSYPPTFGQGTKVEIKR
B8: MS-Roche #3.3.H1 Fab (Fab, V domains shown)
VH: B7 VH with A50V, Q53E, R54K, G55S, Q56R, T58I
VL: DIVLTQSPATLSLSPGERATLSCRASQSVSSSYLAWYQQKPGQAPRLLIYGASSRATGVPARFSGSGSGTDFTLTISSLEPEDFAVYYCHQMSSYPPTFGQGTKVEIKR
B9: MS-Roche #3.3.H3 Fab (Fab, V domains shown)
VH: B7 VH with R54N, Q56F, F57H, T58I
VL: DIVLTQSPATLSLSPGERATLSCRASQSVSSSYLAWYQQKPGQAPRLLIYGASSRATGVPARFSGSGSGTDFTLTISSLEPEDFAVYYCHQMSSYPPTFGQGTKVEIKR

Molecular target: T1, BSA-conjugated Aβ heptapeptide FFAEDVC
Assay: ELISA
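For OD ratio 18-23/BSA in this document: ELISA of antibody at 10 or 2 µg/ml binding plate-coated BSA–peptide conjugates, detected with HRP anti-human Ig and TMB colour, mock-treated BSA without peptide as negative control.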
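For OD ratio 19-24/BSA in this document: ELISA of antibody at 10 or 2 µg/ml binding plate-coated BSA–peptide conjugates, detected with HRP anti-human Ig and TMB colour, mock-treated BSA without peptide as negative control.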
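For Peptide-ratio 18-23/2-7 in this document: ELISA of antibody at 10 or 2 µg/ml binding plate-coated BSA–peptide conjugates, detected with HRP anti-human Ig and TMB colour, mock-treated BSA without peptide as negative control.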
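For Peptide-ratio 19-24/2-7 in this document: ELISA of antibody at 10 or 2 µg/ml binding plate-coated BSA–peptide conjugates, detected with HRP anti-human Ig and TMB colour, mock-treated BSA without peptide as negative control.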
Experimental: (§1) 50 μl of NSMP activated BSA (6.7 mg/ml) was diluted with 50 μl of PBS, 0.1% sodium azide and 10 μl of peptide solution (1 mM in DMSO) was added. As negative control activated BSA was mock-treated without peptide addition. After 4 hrs at room temperature the reaction was stopped by addition of 10 μl of 10 mM Cystein. An aliquot of the conjugate reaction mixture was diluted 1:100 with 0.1M sodium bicarbonate buffer and immediately filled into the wells (100 μl) of ELISA plates (Nunc Immuno-Plate). After standing 16 hrs at 4° C. 100 μl blocking buffer (as above) was added to each well and incubated for another 30 minutes. The plates were washed with 2×300 μl/well TBST (as above) and filled with 100 μl antibody at 10 μg/ml or 2 μg/ml in blocking buffer. The plates were kept 16 hours at 4° C. and washed with 2×300 μl TBST. 100 μl/well HRP-conjugated anti-human Ig H+L (Pierce, dilution 1:1000 with blocking buffer) was added and incubated for 1 hour at ambient temperature. The plates were washed with 3×300 μl/well TBST. Colour development was started by addition of 100 μl tetra-methyl benzidine/hydrogen peroxide reagent.

Row | Binder | OD ratio 19-24/BSA | Peptide-ratio 19-24/2-7
1 | B1 | 8 | 0.23
2 | B2 | 9 | 0.27
3 | B3 | 7 | 0.22
4 | B4 | 9 | 0.24
5 | B5 | 8 | 0.25
6 | B6 | 14 | 0.41
7 | B7 | 20 | 0.77
8 | B8 | 8 | 0.35
9 | B9 | 2 | 0.06

Molecular target: T2, BSA-conjugated Aβ heptapeptide VFFAEDC
Assay: ELISA
Experimental: as §1

Row | Binder | OD ratio 18-23/BSA | Peptide-ratio 18-23/2-7
10 | B1 | 6 | 0.16
11 | B2 | 20 | 0.57
12 | B3 | 15 | 0.49
13 | B4 | 15 | 0.41
14 | B5 | 9 | 0.29
15 | B6 | 12 | 0.36
16 | B7 | 23 | 0.88
17 | B8 | 12 | 0.52
18 | B9 | 5 | 0.16

Molecular target: T3, BSA-conjugated Aβ heptapeptide LVFFAEC
Assay: ELISA
Experimental: as §1

Row | Binder | OD ratio 17-22/BSA | Peptide-ratio 17-22/2-7
19 | B1 | 3 | 0.08
20 | B2 | 11 | 0.31
21 | B3 | 10 | 0.32
22 | B4 | 11 | 0.3
23 | B5 | 8 | 0.25
24 | B6 | 10 | 0.29
25 | B7 | 12 | 0.46
26 | B8 | 4 | 0.17
27 | B9 | 2 | 0.06

Molecular target: T4, BSA-conjugated Aβ heptapeptide AEFRHDC
Assay: ELISA
Experimental: as §1

Row | Binder | OD ratio 2-7/BSA
28 | B1 | 35
29 | B2 | 35
30 | B3 | 30
31 | B4 | 37
32 | B5 | 31
33 | B6 | 34
34 | B7 | 26
35 | B8 | 23
36 | B9 | 31

What follows are binders tested against T5, Aβ (1-42) peptide (human) (assay: SPR, immobilized fibers;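 also: biacore SPR using in vitro grown Aβ1-40 or Aβ1-42 fibrils immobilized on the chip with Fab analytes, KD from koff/kon fits or equilibrium isotherms based on total Fab concentration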).
T5 construct: also called Aβ1-42 fibers; Aβ4

Row | Binder | Kd [nM]
37 | B1 | 5.7
38 | B2 | 2.8
39 | B3 | 4.2
40 | B4 | 74
41 | B5 | 6.7
42 | B6 | 0.3
43 | B7 | 1.1
44 | B8 | 19.4
45 | B9 | 3.3

The binders below were run against T6, human Aβ (1-40) peptide (human) (assay: SPR, immobilized fibers;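 also: biacore SPR using in vitro grown Aβ1-40 or Aβ1-42 fibrils immobilized on the chip with Fab analytes, KD from koff/kon fits or equilibrium isotherms based on total Fab concentration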).
T6 construct: also called Aβ1-40 fibers

Row | Binder | Kd [nM]
46 | B1 | 5
47 | B2 | 4.2
48 | B3 | 4.8
49 | B4 | 22
50 | B5 | 12.7
51 | B6 | 0.3
52 | B7 | 5.2
53 | B8 | 17.1
54 | B9 | 1.4
